Consider 2 substances from article PMC4839745.

For the experiment, the target named is HARE(ΔM3) single-motif deletion cytoplasmic domain mutant lacking NPLY2519. Nature of the experiment: co-IP; HARE variants precipitated from cell lysate (300 μg protein) with goat anti-V5 Ab (2 μg/ml) and Protein A/G Plus Agarose, 4°C; blot with anti-tERK1/2 Ab; cells incubated with or without 10 μg/ml (709 nM) UFH for 20 min; Lysis Buffer with 0.5% Nonidet P-40.

Turning to “ERK2 (of ERK1/2, p44/42) (from UniProt P28482 1-360) (enzyme)”, the percent decrease of association (tERK:HARE ratio) against WT HARE came to 67%.

On to “ERK1 (of ERK1/2, p44/42) (from UniProt P27361 1-379) (enzyme)”, for which the percent decrease of association (tERK:HARE ratio) against WT HARE was determined as 67%.
